± gives the standard deviation of the averaged measurements.
Experiment: total protein half-life in vivo (active degradation + dilution); higher = more stable protein
[1] = E. coli NCM3722 delta-clpP delta-lon delta-hslV, growth: N-lim chemostat, doubling time 6 h
[2] = E. coli NCM3722 delta-clpP, growth: N-lim chemostat, doubling time 6 h
[3] = E. coli NCM3722 delta-hslV, growth: N-lim chemostat, doubling time 6 h
[4] = E. coli NCM3722 delta-lon, growth: N-lim chemostat, doubling time 6 h
[5] = E. coli NCM3722 delta-smpB, growth: N-lim chemostat, doubling time 6 h
[6] = wild type E. coli NCM3722, growth: C-lim chemostat, doubling time 3 h
[7] = wild type E. coli NCM3722, growth: C-lim chemostat, doubling time 12 h
[8] = wild type E. coli NCM3722, growth: N-lim chemostat, doubling time 6 h
[9] = wild type E. coli NCM3722, growth: N-lim chemostat, doubling time 12 h
[10] = wild type E. coli NCM3722, growth: P-lim chemostat, doubling time 6 h
[11] = wild type E. coli NCM3722, growth: P-lim chemostat, doubling time 12 h
[12] = wild type E. coli NCM3722, growth: C-lim chemostat, doubling time 6 h

Sequence	total protein half-life in vivo [1] [h]	total protein half-life in vivo [2] [h]	total protein half-life in vivo [3] [h]	total protein half-life in vivo [4] [h]	total protein half-life in vivo [5] [h]	total protein half-life in vivo [6] [h]	total protein half-life in vivo [7] [h]	total protein half-life in vivo [8] [h]	total protein half-life in vivo [9] [h]	total protein half-life in vivo [10] [h]	total protein half-life in vivo [11] [h]	total protein half-life in vivo [12] [h]
MELLSEYGLFLAKIVTVVLAIAAIAAIIVNVAQRNKRQRGELRVNNLSEQYKEMKEELAAALMDSHQQKQWHKAQKKKHKQEAKAAKAKAKLGEVATDSKPRVWVLDFKGSMDAHEVNSLREEITAVLAAFKPQDQVVLRLESPGGMVHGYGLAASQLQRLRDKNIPLTVTVDKVAASGGYMMACVADKIVSAPFAIVGSIGVVAQMPNFNRFLKSKDIDIELHTAGQYKRTLTLLGENTEEGREKFREELNETHQLFKDFVKRMRPSLDIEQVATGEHWYGQQAVEKGLVDEINTSDEVILSLMEGREVVNVRYMQRKRLIDRFTGSAAESADRLLLRWWQRGQKPLM [P0AG14]	6.52 ± 0.91	6.18 ± 0.14	5.91 ± 0.15	6.12 ± 0.27	6.07 ± 0.87	3.11 ± 0.099	11.3 ± 0.26	6.076 ± 0.021	14.1 ± 1.8	5.6 ± 0.61	11.4 ± 1.4	
MELSSLTAVSPVDGRYGDKVSALRGIFSEYGLLKFRVQVEVRWLQKLAAHAAIKEVPAFAADAIGYLDAIVASFSEEDAARIKTIERTTNHDVKAVEYFLKEKVAEIPELHAVSEFIHFACTSEDINNLSHALMLKTARDEVILPYWRQLIDGIKDLAVQYRDIPLLSRTHGQPATPSTIGKEMANVAYRMERQYRQLNQVEILGKINGAVGNYNAHIAAYPEVDWHQFSEEFVTSLGIQWNPYTTQIEPHDYIAELFDCVARFNTILIDFDRDVWGYIALNHFKQKTIAGEIGSSTMPHKVNPIDFENSEGNLGLSNAVLQHLASKLPVSRWQRDLTDSTVLRNLGVGIGYALIAYQSTLKGVSKLEVNRDHLLDELDHNWEVLAEPIQTVMRRYGIEKPYEKLKELTRGKRVDAEGMKQFIDGLALPEEEKARLKAMTPANYIGRAITMVDELK [P0AB89]	4.77 ± 0.41	5.24 ± 0.62	5.18 ± 0.54	5.11 ± 0.4	4.63 ± 0.12	3.01 ± 0.1	10.5 ± 0.86	4.64 ± 0.062	8.57 ± 0.16	5.79 ± 0.6	12.25 ± 0.033	5.55 ± 0.32
MELYREYPAWLIFLRRTYAVAAGVLALPFMLFWKDRARFYSYLHRVWSKTSDKPVWMDQAEKATGDFY [P0AAU2]	2.55 ± 0.61				1.38 ± 0.15		3.9	2.33	3.85	0.733	3.35 ± 1.6	
MENIMNNPVIGVVMCRNRLKGHATQTLQEKYLNAIIHAGGLPIALPHALAEPSLLEQLLPKLDGIYLPGSPSNVQPHLYGENGDEPDADPGRDLLSMAIINAALERRIPIFAICRGLQELVVATGGSLHRKLCEQPELLEHREDPELPVEQQYAPSHEVQVEEGGLLSALLPECSNFWVNSLHGQGAKVVSPRLRVEARSPDGLVEAVSVINHPFALGVQWHPEWNSSEYALSRILFEGFITACQHHIAEKQRL		2.93				2.64	10.5				10.6 ± 0.45	
MENKSARAKVQAFGGFLTAMVIPNIGAFIAWGFITALFIPTGWLPNEHFAKIVGPMITYLLPVMIGSTGGHLVGGKRGAVMGGIGTIGVIVGAEIPMFLGSMIMGPLGGLVIKYVDKALEKRIPAGFEMVINNFSLGIAGMLLCLLGFEVIGPAVLIANTFVKECIEALVHAGYLPLLSVINEPAKVLFLNNAIDQGVYYPLGMQQASVNGKSIFFMVASNPGPGLGLLLAFTLFGKGMSKRSAPGAMIIHFLGGIHELYFPYVLMKPLTIIAMIAGGMSGTWMFNLLDGGLVAGPSPGSIFAYLALTPKGSFLATIAGVTVGTLVSFAITSLILKMEKTVETESEDEFAQSANAVKAMKQEGAFSLSRVKRIAFVCDAGMGSSAMGATTFRKRLEKAGLAIEVKHYAIENVPADADIVVTHASLEGRVKRVTDKPLILINNYIGDPKLDTLFNQLTAEHKH						2.08	8.89					3.65
MENNEIQSVLMNALSLQEVHVSGDGSHFQVIAVGELFDGMSRVKKQQTVYGPLMEYIADNRIHAVSIKAYTPAEWARDRKLNGF [P0A9W6]	5.36 ± 0.32	3.86 ± 0.21	4.35 ± 0.56	5.87 ± 1.2	4.08 ± 0.3	3.11 ± 0.42	7.8 ± 0.37	4.09 ± 0.043	7.378 ± 0.011	4.79 ± 0.25	10.8 ± 1.1	4.5
MEPLREIRNRLLNGWQLSKMHTFEVAARHQSFALAAEELSLSPSAVSHRINQLEEELGIQLFVRSHRKVELTHEGKRVYWALKSSLDTLNQEILDIKNQELSGTLTLYSRPSIAQCWLVPALGDFTRRYPSISLTVLTGNDNVNLQRAGIDLAIYFDDAPSAQLTHHFLMDEEILPVCSPEYAQRHALTNTVINLCHCTLLHDRQAWSNDSGTDEWHSWAQHYAVNLPTSSGIGFDRSDLAVIAAMNHIGVAMGRKRLVQKRLASGELVAPFGDMTVKCHQHYYITTLPGRQWPKIEAFIIWLREQVKTTS	5.88	5.73 ± 0.3	6.65 ± 0.47	7.48 ± 0.075	6.21 ± 1.6	2.74	11 ± 1.1	5.13				
MEQLRAELSHLLGEKLSRIECVNEKADTALWALYDSQGNPMPLMARSFSTPGKARQLAWKTTMLARSGTVRMPTIYGVMTHEEHPGPDVLLLERMRGVSVEAPARTPERWEQLKDQIVEALLAWHRQDSRGCVGAVDNTQENFWPSWYRQHVEVLWTTLNQFNNTGLTMQDKRILFRTRECLPALFEGFNDNCVLIHGNFCLRSMLKDSRSDQLLAMVGPGLMLWAPREYELFRLMDNSLAEDLLWSYLQRAPVAESFIWRRWLYVLWDEVAQLVNTGRFSRRNFDLASKSLLPWLA [P0AB03]	5.11	4.02	2.54 ± 0.47	2.51	1.57	2.16 ± 0.1	6.84 ± 0.48			3.8	7.86	3.92 ± 0.21

Source: the supplement of paper PMC11246515
